Assay results taken from patent US20190218277A1 (Chugai, published 2019).
Residue numbers refer to the chain shown, from its start.

T1: human FcγRIIIb (NA2) (human, UniProt O75015 17-200)
T1 construct: also called human FcγR3b allelic variant NA2
T1 chain: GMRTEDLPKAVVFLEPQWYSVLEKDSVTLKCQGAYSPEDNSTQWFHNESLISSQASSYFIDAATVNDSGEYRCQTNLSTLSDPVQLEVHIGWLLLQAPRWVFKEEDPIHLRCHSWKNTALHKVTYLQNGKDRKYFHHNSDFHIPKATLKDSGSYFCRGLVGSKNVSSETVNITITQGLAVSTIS

T2: mouse FcγRIIb (mouse, UniProt P08101 30-210)
T2 construct: also called mFcγRIIb; mouse FcγR2b
T2 sequence: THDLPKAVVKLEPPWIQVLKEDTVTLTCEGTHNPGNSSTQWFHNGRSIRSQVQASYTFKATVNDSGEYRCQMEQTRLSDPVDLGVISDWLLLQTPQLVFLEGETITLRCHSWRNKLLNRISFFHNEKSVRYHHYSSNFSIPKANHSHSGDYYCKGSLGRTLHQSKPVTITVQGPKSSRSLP

T3: mouse FcγRIV (mouse, UniProt A0A0B4J1G0 21-203)
T3 construct: also called mFcγRIV; mouse FcγR4
T3 sequence: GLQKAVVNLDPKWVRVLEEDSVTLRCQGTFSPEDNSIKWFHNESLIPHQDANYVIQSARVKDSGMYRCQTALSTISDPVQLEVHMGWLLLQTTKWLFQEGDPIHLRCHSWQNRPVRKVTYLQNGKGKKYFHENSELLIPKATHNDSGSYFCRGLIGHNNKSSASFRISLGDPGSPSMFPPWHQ

B1: Anti-CD154 antibody (SLAPH0336a/SLAPL0336a) with Fc variant LALA+ACT3 (SG1044) (antibody)
heavy: EVQLVESGGGSVKPGGSLKLSCAASGFTFSDHYMYWVRQTPEKRLEWVAIISGGGSYTSYPDSMKGRFTISRDNAKNILHLQMSSLKSEDTAMYYCTRESNGKPGFAYWGQGTLVTVSAASTKGPSVFPLAPSSKSTSGGTAALGCLVKDYFPEPVTVSWNSGALTSGVHTFPAVLQSSGLYSLSSVVTVPSSSLGTQTYICNVNHKPSNTKVDKRVEPKSCDKTHTCPPCPAPEAAGGPSVFLFPPKPKDTLMISRTPEVTCVVVDVSHEDPEVKFNWYVDGVEVHNAKTKPREEQYNSTYRVVSVLTVLHQDWLNGKEYKCKVSNKALPAPIEKTISKAKGQPREPQVYTLPPSREEMTKNQVSLTCLVKGFYPSDIAVEWESNGQPENNYKTTPPVLDSDGSFFLYSKLTVDKSRWQQGNVFSCSVLHEALHAHTTRKELSLSP
light: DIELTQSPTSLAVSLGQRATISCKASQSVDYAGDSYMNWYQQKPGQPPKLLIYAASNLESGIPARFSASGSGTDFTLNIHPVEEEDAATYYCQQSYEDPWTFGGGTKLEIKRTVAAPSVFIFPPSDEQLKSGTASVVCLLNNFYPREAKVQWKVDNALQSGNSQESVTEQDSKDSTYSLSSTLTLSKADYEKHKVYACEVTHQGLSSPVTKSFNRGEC
B2: Anti-CD154 antibody (SLAPH0336a/SLAPL0336a) with Fc variant LALA+ACT5+KAES (SG1106) (antibody)
heavy: B1 heavy with K328A, E335S, T438Y
light: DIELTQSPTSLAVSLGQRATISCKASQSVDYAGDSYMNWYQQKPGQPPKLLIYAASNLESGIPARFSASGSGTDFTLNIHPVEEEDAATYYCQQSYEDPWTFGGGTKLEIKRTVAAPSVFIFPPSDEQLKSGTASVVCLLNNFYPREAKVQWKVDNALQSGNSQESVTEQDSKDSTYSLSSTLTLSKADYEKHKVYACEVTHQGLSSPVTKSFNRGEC
notes: also called LALA+KAES+ACT5
B3: Anti-CD154 antibody (SLAPH0336a/SLAPL0336a) with Fc variant LALA+ACT5 (SG1045) (antibody)
heavy: B1 heavy with T438Y
light: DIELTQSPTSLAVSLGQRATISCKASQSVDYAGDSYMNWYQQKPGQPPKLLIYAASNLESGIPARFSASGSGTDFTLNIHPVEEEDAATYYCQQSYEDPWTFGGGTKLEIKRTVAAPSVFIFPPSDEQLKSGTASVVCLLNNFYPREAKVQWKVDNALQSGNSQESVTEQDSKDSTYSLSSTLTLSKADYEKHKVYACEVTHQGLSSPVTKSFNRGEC
B4: Anti-CD154 antibody (SLAPH0336a/SLAPL0336a) with Fc variant LALA+ACT3+KAES (SG1105) (antibody)
heavy: B1 heavy with K328A, E335S
light: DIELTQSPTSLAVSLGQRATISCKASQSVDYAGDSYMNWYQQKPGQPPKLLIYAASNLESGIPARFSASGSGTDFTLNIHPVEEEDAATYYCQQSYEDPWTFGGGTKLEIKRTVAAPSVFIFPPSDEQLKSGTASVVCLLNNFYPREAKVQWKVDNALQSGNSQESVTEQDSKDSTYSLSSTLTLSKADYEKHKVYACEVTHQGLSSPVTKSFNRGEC
notes: also called LALA+KAES+ACT3

target: mouse C1q (from 10% mouse plasma) (mouse, UniProt P98086 23-245; P14106 26-253; Q02105 30-246); experiment: ELISA: antibody coated on the plate at the concentration shown, 10% mouse plasma added, detected with biotinylated anti-mouse C1q and streptavidin-HRP, OD 405 nm
Sequence (P98086 23-245 limits assumed, chain 1 of 3): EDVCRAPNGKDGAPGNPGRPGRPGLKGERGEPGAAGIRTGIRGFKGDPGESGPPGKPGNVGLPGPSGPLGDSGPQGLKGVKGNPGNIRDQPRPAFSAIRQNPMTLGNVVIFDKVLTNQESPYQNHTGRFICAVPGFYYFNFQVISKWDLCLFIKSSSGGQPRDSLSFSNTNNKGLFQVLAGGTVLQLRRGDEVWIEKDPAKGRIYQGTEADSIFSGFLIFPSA
Sequence (P14106 26-253 limits assumed, chain 2 of 3): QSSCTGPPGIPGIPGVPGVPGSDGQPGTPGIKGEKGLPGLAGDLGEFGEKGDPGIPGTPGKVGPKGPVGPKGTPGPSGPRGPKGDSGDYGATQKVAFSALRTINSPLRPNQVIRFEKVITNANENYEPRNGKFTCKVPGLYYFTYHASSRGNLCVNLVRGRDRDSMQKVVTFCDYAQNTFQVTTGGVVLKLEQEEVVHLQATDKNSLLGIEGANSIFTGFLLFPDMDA
Sequence (Q02105 30-246 limits assumed, chain 3 of 3): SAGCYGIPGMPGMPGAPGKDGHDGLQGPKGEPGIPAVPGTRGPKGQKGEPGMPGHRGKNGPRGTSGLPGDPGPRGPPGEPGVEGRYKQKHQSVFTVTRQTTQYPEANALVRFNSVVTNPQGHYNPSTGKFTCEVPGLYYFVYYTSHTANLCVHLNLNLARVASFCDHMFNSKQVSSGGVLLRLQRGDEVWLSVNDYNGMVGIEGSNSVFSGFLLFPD

| Binder | binding result |
| --- | --- |
| B1 | binds |
| B2 | binds |
| B3 | binds |
| B4 | binds |

target: T4, human FcγRIIIa (158V) (human, UniProt P08637 17-208); experiment: SPR (Biacore T200, pH 7.4, 25 °C): His-tagged FcγR captured by anti-His antibody; antibody injected at 100 nM alone (Ab alone) or as 1:1 complex with trimeric CD154 (CD154 IC); binding level / capture level [F]
T4 construct: also called human FcγR3a allelic variant 158V
T4 sequence (P08637 other isoform, or with tags, fused parts or gaps limits assumed): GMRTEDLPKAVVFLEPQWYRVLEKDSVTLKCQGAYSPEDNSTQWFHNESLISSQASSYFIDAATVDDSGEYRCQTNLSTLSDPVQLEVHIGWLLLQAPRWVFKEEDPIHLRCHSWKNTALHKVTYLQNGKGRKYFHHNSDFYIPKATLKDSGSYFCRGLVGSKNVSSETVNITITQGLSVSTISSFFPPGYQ

| Binder | binding result |
| --- | --- |
| B2 | binds |
| B3 | binds |
| B4 | binds |

Target: T1, human FcγRIIIb (NA2)
Experiment: SPR (Biacore T200, pH 7.4, 25 °C): His-tagged FcγR captured by anti-His antibody; antibody injected at 100 nM alone (Ab alone) or as 1:1 complex with trimeric CD154 (CD154 IC); binding level / capture level [H]

| Binder | binding result |
| --- | --- |
| B1 | no binding (tested: 100 nM) |
| B2 | no binding (tested: 100 nM) |
| B3 | no binding (tested: 100 nM) |
| B4 | no binding (tested: 100 nM) |

target: T2, mouse FcγRIIb; experiment: SPR (Biacore T200, pH 7.4, 25 °C): His-tagged FcγR captured by anti-His antibody; antibody injected at 100 nM alone (Ab alone) or as 1:1 complex with trimeric CD154 (CD154 IC); binding level / capture level [B]

| Binder | binding result |
| --- | --- |
| B1 | no binding (tested: 100 nM) |
| B2 | no binding (tested: 100 nM) |
| B3 | no binding (tested: 100 nM) |
| B4 | no binding (tested: 100 nM) |

target: T3, mouse FcγRIV; experiment: SPR (Biacore T200, pH 7.4, 25 °C): His-tagged FcγR captured by anti-His antibody; antibody injected at 100 nM alone (Ab alone) or as 1:1 complex with trimeric CD154 (CD154 IC); binding level / capture level [D]

| Binder | binding result |
| --- | --- |
| B1 | no binding (tested: 100 nM) |
| B2 | no binding (tested: 100 nM) |
| B3 | no binding (tested: 100 nM) |
| B4 | no binding (tested: 100 nM) |
